Measurements as given in patent US20210388087A1 (Chugai, published 2021).
Numbering of substitutions follows the chain as printed. In names and notes the source's numbering stands.

T1: Human CD3eg linker (human)
T1 construct: Single-chain construct; also called recombinant human CD3
T1 chain: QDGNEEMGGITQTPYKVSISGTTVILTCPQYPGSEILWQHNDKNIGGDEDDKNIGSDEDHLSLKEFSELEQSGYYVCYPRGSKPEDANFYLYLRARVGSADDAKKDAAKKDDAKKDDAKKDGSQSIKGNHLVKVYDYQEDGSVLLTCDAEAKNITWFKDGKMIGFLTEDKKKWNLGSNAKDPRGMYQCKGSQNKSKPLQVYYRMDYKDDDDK

B1: H183/L072 VL Y32P (antibody, name in Kabat numbering, V domains shown)
VH: QVQLVESGGGLVQPGRSLRLSCAASGFTFSNAWMHWVRQAPGKGLEWVAQIKDKGNAYAAYYAPSVKGRFTISRDDSKNSIYLQMNSLKTEDTAVYYCHYVHYASASTVLPAFGVDAWGQGTTVTVSS
VL: DIVMTQSPLSLPVTPGEPASISCQASQELVHMNRNTPLHWYQQKPGQAPRLLIYKVSNRFPGVPDRFSGSGSGTDFTLKISRVEAEDVGVYYCAQGTSVPFTFGQGTKLEIK
notes: Dual-Ig
B2: H183/L072 VL Y32W (antibody, name in Kabat numbering, V domains shown)
VH: B1 VH
VL: B1 VL with P37W
notes: Dual-Ig
B3: H183/L072 VL Y32Q (antibody, name in Kabat numbering, V domains shown)
VH: B1 VH
VL: B1 VL with P37Q
notes: Dual-Ig
B4: H183/L072 VL Y32V (antibody, name in Kabat numbering, V domains shown)
VH: B1 VH
VL: B1 VL with P37V
notes: Dual-Ig
B5: H183/L072 VL S26A (antibody, name in Kabat numbering, V domains shown)
VH: B1 VH
VL: B1 VL with S26A, P37Y
B6: H183/L072 VL A25V (antibody, name in Kabat numbering, V domains shown)
VH: B1 VH
VL: B1 VL with A25V, P37Y
B7: H183/L072 VL E27aN (antibody, name in Kabat numbering, V domains shown)
VH: B1 VH
VL: B1 VL with E28N, P37Y
B8: H183/L072 VL E27aG (antibody, name in Kabat numbering, V domains shown)
VH: B1 VH
VL: B1 VL with E28G, P37Y
B9: H183/L072 VL A89Q (antibody, name in Kabat numbering, V domains shown)
VH: B1 VH
VL: B1 VL with P37Y, A94Q
B10: H183/L072 VL A89H (antibody, name in Kabat numbering, V domains shown)
VH: B1 VH
VL: B1 VL with P37Y, A94H
B11: H183/L072 VL A25P (antibody, name in Kabat numbering, V domains shown)
VH: B1 VH
VL: B1 VL with A25P, P37Y
B12: H183/L072 VL A25T (antibody, name in Kabat numbering, V domains shown)
VH: B1 VH
VL: B1 VL with A25T, P37Y
B13: H183/L072 VL A89S (antibody, name in Kabat numbering, V domains shown)
VH: B1 VH
VL: B1 VL with P37Y, A94S
B14: H183/L072 VL A25K (antibody, name in Kabat numbering, V domains shown)
VH: B1 VH
VL: B1 VL with A25K, P37Y
B15: H183/L072 VL A89V (antibody, name in Kabat numbering, V domains shown)
VH: B1 VH
VL: B1 VL with P37Y, A94V
B16: H183/L072 VL A89T (antibody, name in Kabat numbering, V domains shown)
VH: B1 VH
VL: B1 VL with P37Y, A94T
B17: H183/L072 VL A89F (antibody, name in Kabat numbering, V domains shown)
VH: B1 VH
VL: B1 VL with P37Y, A94F
B18: H183/L072 VL A25G (antibody, name in Kabat numbering, V domains shown)
VH: B1 VH
VL: B1 VL with A25G, P37Y
B19: H183/L072 VL E27aI (antibody, name in Kabat numbering, V domains shown)
VH: B1 VH
VL: B1 VL with E28I, P37Y
B20: H183/L072 VL A25S (antibody, name in Kabat numbering, V domains shown)
VH: B1 VH
VL: B1 VL with A25S, P37Y
B21: H183/L072 VL A89D (antibody, name in Kabat numbering, V domains shown)
VH: B1 VH
VL: B1 VL with P37Y, A94D
B22: H183/L072 VL A89K (antibody, name in Kabat numbering, V domains shown)
VH: B1 VH
VL: B1 VL with P37Y, A94K
B23: H183/L072 VL E27aH (antibody, name in Kabat numbering, V domains shown)
VH: B1 VH
VL: B1 VL with E28H, P37Y
B24: H183/L072 VL E27aM (antibody, name in Kabat numbering, V domains shown)
VH: B1 VH
VL: B1 VL with E28M, P37Y
B25: H183/L072 VL A25Q (antibody, name in Kabat numbering, V domains shown)
VH: B1 VH
VL: B1 VL with A25Q, P37Y
B26: H183/L072 VL A89E (antibody, name in Kabat numbering, V domains shown)
VH: B1 VH
VL: B1 VL with P37Y, A94E
B27: H183/L072 VL A25M (antibody, name in Kabat numbering, V domains shown)
VH: B1 VH
VL: B1 VL with A25M, P37Y
B28: H183/L072 VL E27aF (antibody, name in Kabat numbering, V domains shown)
VH: B1 VH
VL: B1 VL with E28F, P37Y
B29: H183/L072 VL E27aK (antibody, name in Kabat numbering, V domains shown)
VH: B1 VH
VL: B1 VL with E28K, P37Y
B30: H183/L072 VL A25D (antibody, name in Kabat numbering, V domains shown)
VH: B1 VH
VL: B1 VL with A25D, P37Y
B31: H183/L072 VL E27aP (antibody, name in Kabat numbering, V domains shown)
VH: B1 VH
VL: B1 VL with E28P, P37Y
B32: H183/L072 VL E27aL (antibody, name in Kabat numbering, V domains shown)
VH: B1 VH
VL: B1 VL with E28L, P37Y
B33: H183/L072 VL A25I (antibody, name in Kabat numbering, V domains shown)
VH: B1 VH
VL: B1 VL with A25I, P37Y
B34: H183/L072 VL A89M (antibody, name in Kabat numbering, V domains shown)
VH: B1 VH
VL: B1 VL with P37Y, A94M
B35: H183/L072 VL A25H (antibody, name in Kabat numbering, V domains shown)
VH: B1 VH
VL: B1 VL with A25H, P37Y
B36: H183/L072 VL A25N (antibody, name in Kabat numbering, V domains shown)
VH: B1 VH
VL: B1 VL with A25N, P37Y
B37: H183/L072 VL A89W (antibody, name in Kabat numbering, V domains shown)
VH: B1 VH
VL: B1 VL with P37Y, A94W
B38: H183/L072 VL A25E (antibody, name in Kabat numbering, V domains shown)
VH: B1 VH
VL: B1 VL with A25E, P37Y
B39: H183/L072 VL E27aD (antibody, name in Kabat numbering, V domains shown)
VH: B1 VH
VL: B1 VL with E28D, P37Y
B40: H183/L072 VL A89G (antibody, name in Kabat numbering, V domains shown)
VH: B1 VH
VL: B1 VL with P37Y, A94G
B41: H183/L072 VL A25R (antibody, name in Kabat numbering, V domains shown)
VH: B1 VH
VL: B1 VL with A25R, P37Y
B42: H183/L072 VL E27aA (antibody, name in Kabat numbering, V domains shown)
VH: B1 VH
VL: B1 VL with E28A, P37Y

Each binder was assayed against T2, Human CD137 ECD (human) (assay: Biacore SPR, vs parent H183/L072).
T2 construct: entry includes C-terminal His-tag and biotin acceptor peptide; also called human CD137 extracellular domain; 4-1BB
T2 sequence (chain, as listed by the source limits assumed): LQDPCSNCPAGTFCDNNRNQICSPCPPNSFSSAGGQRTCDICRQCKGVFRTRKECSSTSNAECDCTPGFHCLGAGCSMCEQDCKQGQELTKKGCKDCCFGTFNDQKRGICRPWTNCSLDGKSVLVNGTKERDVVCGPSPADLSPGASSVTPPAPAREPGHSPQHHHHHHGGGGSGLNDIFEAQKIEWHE

In order of falling “fold change of affinity” value:
1. B2  0.7 fold
2. B3  0.2 fold
3. B1  0 fold
4. B4  0 fold

Target: T1, Human CD3eg linker
Assay: SPR; fold vs parent H183/L072

In order of rising “fold change of affinity” value:
1. B10  0 fold
2. B14  0 fold
3. B16  0 fold
4. B21  0 fold
5. B25  0 fold
6. B26  0 fold
7. B27  0 fold
8. B30  0 fold
9. B35  0 fold
10. B38  0 fold
11. B41  0 fold
12. B34  0.1 fold
13. B37  0.1 fold
14. B9  0.2 fold
15. B17  0.2 fold
16. B33  0.3 fold
17. B15  0.4 fold
18. B36  0.5 fold
19. B13  0.6 fold
20. B40  0.7 fold
21. B5  0.8 fold
22. B6  0.9 fold
23. B18  0.9 fold
24. B31  1 fold
25. B7  1.1 fold
26. B12  1.1 fold
27. B19  1.1 fold
28. B22  1.1 fold
29. B28  1.1 fold
30. B29  1.1 fold
31. B39  1.1 fold
32. B11  1.2 fold
33. B24  1.2 fold
34. B32  1.2 fold
35. B42  1.2 fold
36. B20  1.3 fold
37. B8  1.4 fold
38. B23  1.4 fold
